B1: DNA-Binding protein, P69542 (parent)
chain: MIKVEIKPSQAQFTTRSGVSRQGKPYSLNEQLCYVDLGNEYPVLVKITLDEGQPAYAPGLYTVHLSSFKVGQFGSLMIDRLRLVPAK

Variants of: B1
Conditions: Enterobacteria phage fd; pH 7; 25 °C; GdnHCl; CD; MOPS 50 mM; NaCl 100 mM; reversible: yes; structure 1VQB; whole UniProt chain shown

| Variant | unfolding free energy | ddG of mutation (higher = less stable) |
| --- | --- | --- |
| L32Y R82C | 0.15 kcal/mol |  |
| C33M |  | 3.5 kcal/mol |
| C33V |  | 0.2 kcal/mol |
| F68L |  | 4.3 kcal/mol |
| F73W |  | -0.8 kcal/mol |
| I47M |  | 2.2 kcal/mol |
| I47F |  | 2 kcal/mol |
| I47V |  | 2.6 kcal/mol |
| I47L |  | 0.7 kcal/mol |
| V35A |  | 2.2 kcal/mol |
| V35M |  | 1.1 kcal/mol |
| V35L |  | 2.7 kcal/mol |
| V35C |  | 1.4 kcal/mol |
| V35I |  | 0.7 kcal/mol |
| F13T |  | 0.7 kcal/mol |
| A86V |  | -0.5 kcal/mol |
| A86T |  | 0.7 kcal/mol |
| L28V |  | -1.1 kcal/mol |
| R82C |  | 1.5 kcal/mol |
| E30F |  | -2 kcal/mol |
| H64C |  | -0.5 kcal/mol |
| L32Y |  | -1 kcal/mol |
| I6V E30F | 0.71 kcal/mol |  |
| I6V M77I | 0.34 kcal/mol |  |
| F13T E30F | 1.59 kcal/mol |  |
| E30F A86V | 2.05 kcal/mol |  |
| E30F A86T | 1.17 kcal/mol |  |
| V45C |  | 0.1 kcal/mol |
